Numbered stars: 1 amine (or outer) side, 2 acyl side, 3 side chain; on linkers, the order of the positions; unused ones are H or OH. Square brackets hold non-standard residues; d marks the D form. Ends that are not written are not given here. * marks the point of attachment. Tap(Ae) = (2S,4R)-4-(2-aminoethylamino)pyrrolidine-2-carboxylic acid, O=C([C@@H]1C[C@@H](NCCN[*:3])CN1[*:1])[*:2]; dap(6263)2 = (R)-2-amino-3-(bis(2-aminoethyl)amino)propanoic acid, NCCN(CCN[*:3])C[C@@H](N[*:1])C(=O)[*:2]; Tap(Ap) = 4-(3-amino-propylamino)-pyrrolidine-2-carboxylic acid; Pro(trans-4-NH2) = O=C([C@@H]1C[C@@H](N[*:3])CN1[*:1])[*:2]; Sni = (S)-nipecotic acid, O=C([C@H]1CCCN([*:1])C1)[*:2]; Oic = O=C(O)[C@@H]1C[C@@H]2CCCC[C@@H]2N1; dDap(Me2) = CN(C)C[C@@H](N)C(=O)O; Hyp = O=C(O)[C@@H]1C[C@@H](O)CN1; Dap(Me2) = CN(C)C[C@H](N)C(=O)O; NMeL = CN[C@@H](CC(C)C)C(=O)O; AR‑201‑58 = not defined here; AR‑201‑62 = not defined here; AR‑201‑69 = not defined here; Pip = O=C(O)[C@@H]1CCCCN1; Octanoyl = CCCCCCCC(=O)*; Occ = octanoic acid
T1: natriuretic peptide receptor-B (human)
T1 chain: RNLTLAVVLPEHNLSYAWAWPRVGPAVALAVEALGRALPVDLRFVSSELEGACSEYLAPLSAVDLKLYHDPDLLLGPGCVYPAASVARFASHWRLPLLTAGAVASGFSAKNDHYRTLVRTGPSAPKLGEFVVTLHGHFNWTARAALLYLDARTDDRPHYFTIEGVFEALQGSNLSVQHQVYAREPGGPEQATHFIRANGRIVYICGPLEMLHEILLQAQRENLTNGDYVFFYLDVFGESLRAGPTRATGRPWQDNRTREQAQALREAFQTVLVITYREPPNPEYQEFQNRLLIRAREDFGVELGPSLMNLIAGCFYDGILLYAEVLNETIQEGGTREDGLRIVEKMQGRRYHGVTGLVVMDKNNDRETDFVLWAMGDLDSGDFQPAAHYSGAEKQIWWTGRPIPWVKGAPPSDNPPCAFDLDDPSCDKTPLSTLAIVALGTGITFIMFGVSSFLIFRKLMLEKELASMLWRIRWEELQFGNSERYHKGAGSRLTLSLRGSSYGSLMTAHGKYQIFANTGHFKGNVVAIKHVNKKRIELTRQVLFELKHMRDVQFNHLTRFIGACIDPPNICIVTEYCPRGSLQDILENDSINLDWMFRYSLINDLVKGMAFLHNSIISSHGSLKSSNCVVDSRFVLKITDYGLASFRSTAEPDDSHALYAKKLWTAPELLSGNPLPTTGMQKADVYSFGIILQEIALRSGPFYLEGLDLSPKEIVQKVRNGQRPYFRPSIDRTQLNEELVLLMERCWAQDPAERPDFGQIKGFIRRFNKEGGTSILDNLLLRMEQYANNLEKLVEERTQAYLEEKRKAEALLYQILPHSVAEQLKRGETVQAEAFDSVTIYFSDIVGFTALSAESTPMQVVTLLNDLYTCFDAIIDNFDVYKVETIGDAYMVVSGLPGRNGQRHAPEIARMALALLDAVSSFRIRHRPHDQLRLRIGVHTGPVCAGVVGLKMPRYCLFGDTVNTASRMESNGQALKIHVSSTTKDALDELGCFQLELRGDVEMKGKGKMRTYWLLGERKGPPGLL

B1: JAL-1374 (peptide)
peptide: [AR‑201‑62]F[dL]L[Hyp][NMeL]DRI-NH2
modifications: reading uncertain; also: printed as (AR-201-62)-Phe-leu-Leu-Hyp-Nml-Asp-Arg-Ile-NH2
B2: JAL-0648 (peptide)
peptide: XXFGLKLDRI
HELM: PEPTIDE1{[CCCCCC(=O)[*:2]].[O=C(c1ccc(CN[*:1])cc1)[*:2]].F.G.L.K.L.D.R.I.[am]}$$$$V2.0
SMILES: CCCCCC(=O)NCc1ccc(C(=O)N[C@@H](Cc2ccccc2)C(=O)NCC(=O)N[C@@H](CC(C)C)C(=O)N[C@@H](CCCCN)C(=O)N[C@@H](CC(C)C)C(=O)N[C@@H](CC(=O)O)C(=O)N[C@@H](CCCNC(=N)N)C(=O)N[C@H](C(N)=O)[C@@H](C)CC)cc1
B3: JAL-1373 (peptide)
peptide: [AR‑201‑58]F[dL]L[Hyp][NMeL]DRI-NH2
modifications: reading uncertain; also: printed as (AR-201-58)-Phe-leu-Leu-Hyp-Nml-Asp-Arg-Ile-NH2
B4: JAL-0649 (peptide)
peptide: XXFGLKLDRI
HELM: PEPTIDE1{[CCCCCC(=O)[*:2]].[O=C(Cc1cccc(N[*:1])c1)[*:2]].F.G.L.K.L.D.R.I.[am]}$$$$V2.0
SMILES: CCCCCC(=O)Nc1cccc(CC(=O)N[C@@H](Cc2ccccc2)C(=O)NCC(=O)N[C@@H](CC(C)C)C(=O)N[C@@H](CCCCN)C(=O)N[C@@H](CC(C)C)C(=O)N[C@@H](CC(=O)O)C(=O)N[C@@H](CCCNC(=N)N)C(=O)N[C@H](C(N)=O)[C@@H](C)CC)c1
B5: JAL-1375 (peptide)
peptide: [AR‑201‑69]F[dL]L[Hyp][NMeL]DRI-NH2
modifications: reading uncertain; also: printed as (AR-201-69)-Phe-leu-Leu-Hyp-Nml-Asp-Arg-Ile-NH2

Target: T1, natriuretic peptide receptor-B
Test: cell-based or functional assay

EC50 group, cGMP in GTM-3 cells	Binder
≤ 5 µM	B1
≤ 5 µM	Octanoyl-[dA]F[dR]L[Hyp][Oic]DRI-NH2 [JAL-1364]
≤ 5 µM	[Occ][Sni]F[dap(6263)2]L[Pro(trans-4-NH2)][NMeL]DRI-NH2 [JAL-1370]
≤ 15 µM	B2
≤ 5 µM	Octanoyl-[dA]F[dL][Dap(Me2)][Hyp][NMeL]DRI-NH2 [JAL-1368]
≤ 5 µM	Octanoyl-[dA]F[dL]L[Hyp][NMeL]IRI-NH2 [JAL-1363]
≤ 1 µM	Octanoyl-[Sni]F[dL]L[Tap(Ae)][NMeL]DRI-NH2 [JAL-1371]
≤ 5 µM	Octanoyl-[dA]F[dL]L[Hyp][Pip]DRI-NH2 [JAL-1366]
≤ 15 µM	Octanoyl-[dA]F[dR]L[Hyp][Pip]DRI-NH2 [JAL-1365]
≤ 1 µM	Octanoyl-[dA]F[dL]L[Hyp][Dap(Me2)]DRI-NH2 [JAL-1367]
≤ 1 µM	Octanoyl-[Sni]F[dL]L[Tap(Ap)][NMeL]DRI-NH2 [JAL-1372]
≤ 5 µM	B3
≤ 1 µM	Octanoyl-[Sni]F[dDap(Me2)]L[Pro(trans-4-NH2)][NMeL]DRI-NH2 [JAL-1369]
≤ 15 µM	B4
≤ 5 µM	B5
